The record followed here is patent US20250296999A1.

In this test the target is alpha v beta 3 integrin on human podocytes (human) (UniProt P06756).

Usually EC50 (read off the curve) stands for the concentration that produces a half-maximal response.

Sequence of alpha v beta 3 integrin on human podocytes (human) (P06756 31-1048, chain 1 of 2): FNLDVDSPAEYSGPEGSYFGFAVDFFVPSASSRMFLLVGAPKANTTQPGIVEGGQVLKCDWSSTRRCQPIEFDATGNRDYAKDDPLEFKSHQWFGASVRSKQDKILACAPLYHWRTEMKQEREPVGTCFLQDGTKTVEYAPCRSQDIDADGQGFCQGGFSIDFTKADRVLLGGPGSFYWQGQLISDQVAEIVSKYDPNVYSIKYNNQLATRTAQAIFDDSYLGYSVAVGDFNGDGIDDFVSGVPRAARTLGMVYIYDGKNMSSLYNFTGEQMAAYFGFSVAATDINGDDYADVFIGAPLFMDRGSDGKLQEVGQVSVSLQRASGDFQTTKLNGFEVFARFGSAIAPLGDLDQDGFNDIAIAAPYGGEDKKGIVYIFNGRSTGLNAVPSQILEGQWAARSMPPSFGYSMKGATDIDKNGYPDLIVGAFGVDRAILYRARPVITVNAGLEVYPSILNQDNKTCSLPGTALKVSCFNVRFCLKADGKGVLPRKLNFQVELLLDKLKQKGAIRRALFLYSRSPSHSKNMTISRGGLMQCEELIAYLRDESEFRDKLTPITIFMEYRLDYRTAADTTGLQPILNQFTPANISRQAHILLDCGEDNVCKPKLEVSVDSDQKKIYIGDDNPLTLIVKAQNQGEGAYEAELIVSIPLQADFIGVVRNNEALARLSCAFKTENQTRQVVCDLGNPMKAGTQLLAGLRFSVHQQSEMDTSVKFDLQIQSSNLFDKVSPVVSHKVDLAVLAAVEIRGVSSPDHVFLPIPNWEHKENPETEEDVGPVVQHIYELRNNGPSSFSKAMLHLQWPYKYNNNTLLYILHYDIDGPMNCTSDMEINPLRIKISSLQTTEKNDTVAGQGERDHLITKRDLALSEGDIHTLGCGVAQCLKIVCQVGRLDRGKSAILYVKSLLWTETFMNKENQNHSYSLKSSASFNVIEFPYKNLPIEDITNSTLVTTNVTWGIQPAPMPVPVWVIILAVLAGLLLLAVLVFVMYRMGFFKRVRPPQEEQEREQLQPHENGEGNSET
Sequence of alpha v beta 3 integrin on human podocytes (human) (P05106 27-788, chain 2 of 2, further chain): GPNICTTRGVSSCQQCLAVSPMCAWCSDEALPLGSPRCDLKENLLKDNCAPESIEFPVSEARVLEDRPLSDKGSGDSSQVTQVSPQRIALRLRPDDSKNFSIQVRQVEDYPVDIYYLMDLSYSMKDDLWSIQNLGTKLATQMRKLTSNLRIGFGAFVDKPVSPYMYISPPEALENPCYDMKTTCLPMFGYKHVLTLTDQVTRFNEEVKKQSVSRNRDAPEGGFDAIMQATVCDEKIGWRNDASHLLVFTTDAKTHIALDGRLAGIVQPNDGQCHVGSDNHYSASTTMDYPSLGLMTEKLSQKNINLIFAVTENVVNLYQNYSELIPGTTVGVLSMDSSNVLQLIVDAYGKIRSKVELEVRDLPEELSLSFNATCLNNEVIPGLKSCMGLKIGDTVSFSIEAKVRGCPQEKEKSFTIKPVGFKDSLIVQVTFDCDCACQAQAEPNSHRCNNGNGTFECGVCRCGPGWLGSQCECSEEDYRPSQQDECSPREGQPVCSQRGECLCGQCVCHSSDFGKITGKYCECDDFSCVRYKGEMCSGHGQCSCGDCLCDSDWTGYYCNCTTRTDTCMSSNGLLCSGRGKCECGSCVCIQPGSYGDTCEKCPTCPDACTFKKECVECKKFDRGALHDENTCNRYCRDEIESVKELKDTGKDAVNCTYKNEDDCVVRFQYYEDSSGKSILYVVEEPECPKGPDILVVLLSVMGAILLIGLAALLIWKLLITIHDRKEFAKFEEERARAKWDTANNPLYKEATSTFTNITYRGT

As for “human D2D3 protein (C-terminal uPAR fragment, D2D3 protein with Linker) (from UniProt Q03405 100-303) (receptor)”, the concentration for a half-maximal effect (EC50 (read off the curve)) came out at 2 ng/mL.
